Laboratory results: US20200317768A1 (published 2020)

What was measured:
Human latent myostatin [1] = target: T1, Human latent myostatin (human, UniProt O14793 25-266; O14793 267-375); experiment: SPR (BIACORE), additional dissociation phase at pH5.8 after dissociation at pH7.4
T1 construct: Biotinylated in the ELISAs; also called human myostatin latent form
T1 sequence 1: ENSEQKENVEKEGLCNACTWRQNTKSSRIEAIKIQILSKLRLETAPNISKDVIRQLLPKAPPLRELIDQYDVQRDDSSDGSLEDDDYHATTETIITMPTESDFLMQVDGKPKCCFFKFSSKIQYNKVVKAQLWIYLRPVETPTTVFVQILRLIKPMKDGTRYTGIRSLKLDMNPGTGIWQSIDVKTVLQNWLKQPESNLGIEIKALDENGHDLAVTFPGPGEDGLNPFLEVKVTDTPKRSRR
T1 sequence 2: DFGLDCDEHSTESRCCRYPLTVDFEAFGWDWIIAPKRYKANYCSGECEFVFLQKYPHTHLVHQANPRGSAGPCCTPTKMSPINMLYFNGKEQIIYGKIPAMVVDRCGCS
Procedure: (§1) Each amino acid in the CDRs was individually mutated to histidine using In-Fusion HD Cloning Kit (Clontech Inc, or Takara Bio company) according to the manufacturer's instructions. […] All histidine-substituted variants were evaluated by a modified BIACORE® assay as compared to that described above. Briefly, an additional dissociation phase at pH5.8 was integrated into the BIACORE® assay immediately after the dissociation phase at pH7.4. This is to assess the pH-dependent dissociation between antibody (Ab) and antigen (Ag) from the complexes formed at pH7.4 as opposed to the corresponding dissociation at pH5.8. The dissociation rate at pH5.8 buffer was determined by processing and fitting data using the Scrubber 2.0 (BioLogic Software) curve fitting software.
(§2) Antibodies with a combination of these mutations in the CDRs were then generated.

Human latent myostatin [2] = target: T1, Human latent myostatin; experiment: SPR (BIACORE), additional dissociation phase at pH5.8 after dissociation at pH7.4, Scrubber 2.0 fit
Procedure: as §1, §2

GST-hMSTN 141-241aa = target: T2, GST-hMSTN 141-241aa (human, UniProt A1C2U3 141-241 (Pongo pygmaeus entry)); experiment: Western blot on GST tagged fragments
T2 construct: As GST-hMSTN 1-100aa; also called eighth fragment; not shown: GST tag from the pGEX4.1 vector
T2 sequence: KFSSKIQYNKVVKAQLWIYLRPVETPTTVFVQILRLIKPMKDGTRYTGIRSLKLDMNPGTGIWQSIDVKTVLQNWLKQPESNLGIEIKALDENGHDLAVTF
Source text: (§3) Fragments of the N-terminal propeptide coding region of human latent myostatin were cloned into a pGEX4.1 vector so as to produce GST tagged propeptide fragments of 100 amino acid each, with 80 amino acid overlap (FIG. 22A). Protein expression was induced in transformed BL21 competent cells with Overnight Express Autoinduction System (Merck Millipore) and protein was extracted using the BUGBUSTER® protein extraction reagent (Novagen).

GST-hMSTN 121-220aa = target: T3, GST-hMSTN 121-220aa (human, UniProt A1C2U3 121-220 (Pongo pygmaeus entry)); experiment: Western blot on GST tagged fragments
T3 construct: As GST-hMSTN 1-100aa; also called seventh fragment; not shown: GST tag from the pGEX4.1 vector
T3 sequence: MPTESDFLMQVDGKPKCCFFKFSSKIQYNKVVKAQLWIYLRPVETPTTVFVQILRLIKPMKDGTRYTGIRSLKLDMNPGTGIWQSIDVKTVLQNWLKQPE
Source text: as §3

GST-hMSTN 61-160aa = target: T4, GST-hMSTN 61-160aa (human, UniProt O14793 61-160); experiment: Western blot on GST tagged fragments
T4 construct: As GST-hMSTN 1-100aa; also called fourth fragment; not shown: GST tag from the pGEX4.1 vector
T4 sequence: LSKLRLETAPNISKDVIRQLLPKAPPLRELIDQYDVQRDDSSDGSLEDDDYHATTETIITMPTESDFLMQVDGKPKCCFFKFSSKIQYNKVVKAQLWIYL
Source text: as §3

GST-hMSTN 101-200aa = target: T5, GST-hMSTN 101-200aa (human, UniProt A1C2U3 101-200 (Pongo pygmaeus entry)); experiment: Western blot on GST tagged fragments
T5 construct: As GST-hMSTN 1-100aa; also called sixth fragment; not shown: GST tag from the pGEX4.1 vector
T5 sequence: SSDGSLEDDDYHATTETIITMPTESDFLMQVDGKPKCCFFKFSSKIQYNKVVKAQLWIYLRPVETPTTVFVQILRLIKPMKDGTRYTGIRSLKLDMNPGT
Source text: as §3

GST-hMSTN 81-180aa = target: T6, GST-hMSTN 81-180aa (human, UniProt A1C2U3 81-180 (Pongo pygmaeus entry)); experiment: Western blot on GST tagged fragments
T6 construct: As GST-hMSTN 1-100aa; also called fifth fragment; not shown: GST tag from the pGEX4.1 vector
T6 sequence: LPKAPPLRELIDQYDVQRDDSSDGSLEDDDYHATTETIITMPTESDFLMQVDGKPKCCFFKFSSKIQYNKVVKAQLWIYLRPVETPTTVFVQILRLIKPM
Source text: as §3

[3] = target: T7, human FcγRIIIaV extracellular domain with C-terminal His-tag (human, UniProt P08637 17-208); experiment: SPR (BIACORE T200/4000), antibody captured, FcγR as analyte, 25 C
T7 construct: also called FcgRIIIaV; not shown: His-tag added to the C-terminus
T7 sequence (P08637 17-208 F176V): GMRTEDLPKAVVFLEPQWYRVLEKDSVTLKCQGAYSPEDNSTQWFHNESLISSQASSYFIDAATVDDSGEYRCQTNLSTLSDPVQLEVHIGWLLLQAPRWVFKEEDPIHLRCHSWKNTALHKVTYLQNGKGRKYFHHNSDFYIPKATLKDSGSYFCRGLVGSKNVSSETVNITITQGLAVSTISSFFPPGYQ

[4] = target: T8, cyno FcγRIIIaS extracellular domain with C-terminal His-tag (cynomolgus monkey, UniProt A3RFZ7 21-206 (rhesus entry)); experiment: as above
T8 construct: also called FcgRIIIaS; not shown: His-tag added to the C-terminus
T8 sequence (A3RFZ7 21-206): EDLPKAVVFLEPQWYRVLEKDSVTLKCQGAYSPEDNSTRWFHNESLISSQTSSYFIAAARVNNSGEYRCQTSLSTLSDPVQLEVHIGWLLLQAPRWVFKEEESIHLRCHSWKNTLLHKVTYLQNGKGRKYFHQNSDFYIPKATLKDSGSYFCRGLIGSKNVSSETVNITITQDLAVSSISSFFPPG

B1: Ab002 (M103205H001 / M103202L000) (antibody, human IgG1, kappa, V domains shown)
VH: QVTLKESGPVLVKPTETLTLTCTVSGIDLSHYDISWVRQAPGKGLEWVGIISYAGSTYYASWAKGRLTISKDTSKNQVVLTMTNMDPVDTATYYCARGVPAYSTGGDLWGQGTLVTVSS
VL: DIVMTQSPATLSLSPGERATLSCQSSQSVYDNNWLSWFQQKPGQPPKLLIYWASTLASGVPSRFSGSGSGTDFTLTISSLQPEDAATYYCAGGYGGGLYAFGQGTKVEIKR
notes: Histidine-substituted variant of MS1032LO00-SG1
- fold faster dissociation rate at pH5.8 than the parental antibody Ab001 (Human latent myostatin [1]): > 200 fold
- koff (Human latent myostatin [2]): 0.00609 s⁻¹

B2: MST1538 (antibody, human IgG1, kappa, V domains shown)
VH: QSLEESGGGLVKPGGTLTLTCKASGIDFSSYYYMCWVRQAPGKGLEWIACIYAGISGSTYYASWAKGRFTISKTSSTTVTLQMTSLTAADTATYFCARDPYHFDYGSLWGPGTLVTVSS
VL: ALVMTQTPASVSAAVGGTVTINCQASQSVYGGNELSWYQQEPGQPPKLLIYSASKLASGVPSRFKGSGSGTQFTLTISGVQCDDAAAYYCAGYRTYSDDDNAFGGGTKVEIKR
- binding result (GST-hMSTN 141-241aa): no binding
- binding result (GST-hMSTN 121-220aa): no binding
- binding result (GST-hMSTN 61-160aa): no binding
- binding result (GST-hMSTN 101-200aa): no binding
- binding result (GST-hMSTN 81-180aa): no binding

B3: M103205H795-MY009/M103202L889-SK1 (antibody, human IgG1, kappa)
heavy: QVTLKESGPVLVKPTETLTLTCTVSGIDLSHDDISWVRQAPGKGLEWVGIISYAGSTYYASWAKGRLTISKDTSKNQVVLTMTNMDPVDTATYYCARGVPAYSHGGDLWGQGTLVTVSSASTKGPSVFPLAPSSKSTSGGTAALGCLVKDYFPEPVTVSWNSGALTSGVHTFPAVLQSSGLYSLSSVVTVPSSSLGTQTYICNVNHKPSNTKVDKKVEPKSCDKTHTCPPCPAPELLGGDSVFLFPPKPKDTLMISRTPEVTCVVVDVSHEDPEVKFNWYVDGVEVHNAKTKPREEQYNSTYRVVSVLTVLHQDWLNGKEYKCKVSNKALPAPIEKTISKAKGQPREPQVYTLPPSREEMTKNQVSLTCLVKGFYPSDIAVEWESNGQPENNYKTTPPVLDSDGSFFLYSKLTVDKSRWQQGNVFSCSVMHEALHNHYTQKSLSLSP
light: DIVMTQSPATLSLSPGERATLSCTSSQSVYHANWLSWFQQKPGQPPKLLIYWASTLAYGVPSRFSGSGSGTDFTLTISSLQPEDAATYYCAGGYGGGRYAFGQGTKVEIKRTVAAPSVFIFPPSDEQLKSGTASVVCLLNNFYPREAKVQWKVDNALQSGNSQESVTEQDSKDSTYSLSSTLTLSKADYEKHKVYACEVTHQGLSSPVTKSFNRGEC
notes: SG1 with P238D (EU numbering); also called MS1032LO06-MY009; MS1032LO006-MY009
- binding result [3]: binds
- binding result [4]: binds

B4: MST1572 (antibody, human IgG1, kappa, V domains shown)
VH: QSVEESGGRLVTPGTPLTLTCTVSGFSLSSYAMSWVRQAPGKGLEWIGIIYGVGSTYYASWAKGRFTISKTSTTVDLKIASPTTEDTATYFCARDDYGWGYTNLWGPGTLVTVSS
VL: QVLTQTPSSVSAAVGGTVTINCQSSQSVYNNNYLAWFQQKPGQPPKLLIYDASKLASGVPSRFKGSGSGTQFTLTISGVQCDDAATYYCQGSYYSSGWYRAFGGGTKVEIKR
- binding result (GST-hMSTN 141-241aa): no binding
- binding result (GST-hMSTN 121-220aa): no binding
- binding result (GST-hMSTN 61-160aa): no binding
- binding result (GST-hMSTN 101-200aa): no binding
- binding result (GST-hMSTN 81-180aa): no binding
